Assay results as given in patent publication US20240254258A1 (TRELLIS BIOSCIENCE, published 2024).

Target: T1, ALK Extracellullar Domain (ECD), generated by Trellis in mammalian cells (human, UniProt Q9UM73 19-1038)
T1 construct: extracellular domain; Recombinant ECD made in-house in mammalian cells; also called ALK ECD; extracellular domain of ALK
Test: adsorption ELISA on ALK ECD, serial dilutions, estimate of binding affinity
Description: Purified mAbs were tested in adsorption ELISA using ALK Extracellullar Domain (ECD), generated by Trellis in mammalian cells. TRL10001 is of particular interest based on its sub-nM affinity to the target.

T1 sequence (Q9UM73 19-1038): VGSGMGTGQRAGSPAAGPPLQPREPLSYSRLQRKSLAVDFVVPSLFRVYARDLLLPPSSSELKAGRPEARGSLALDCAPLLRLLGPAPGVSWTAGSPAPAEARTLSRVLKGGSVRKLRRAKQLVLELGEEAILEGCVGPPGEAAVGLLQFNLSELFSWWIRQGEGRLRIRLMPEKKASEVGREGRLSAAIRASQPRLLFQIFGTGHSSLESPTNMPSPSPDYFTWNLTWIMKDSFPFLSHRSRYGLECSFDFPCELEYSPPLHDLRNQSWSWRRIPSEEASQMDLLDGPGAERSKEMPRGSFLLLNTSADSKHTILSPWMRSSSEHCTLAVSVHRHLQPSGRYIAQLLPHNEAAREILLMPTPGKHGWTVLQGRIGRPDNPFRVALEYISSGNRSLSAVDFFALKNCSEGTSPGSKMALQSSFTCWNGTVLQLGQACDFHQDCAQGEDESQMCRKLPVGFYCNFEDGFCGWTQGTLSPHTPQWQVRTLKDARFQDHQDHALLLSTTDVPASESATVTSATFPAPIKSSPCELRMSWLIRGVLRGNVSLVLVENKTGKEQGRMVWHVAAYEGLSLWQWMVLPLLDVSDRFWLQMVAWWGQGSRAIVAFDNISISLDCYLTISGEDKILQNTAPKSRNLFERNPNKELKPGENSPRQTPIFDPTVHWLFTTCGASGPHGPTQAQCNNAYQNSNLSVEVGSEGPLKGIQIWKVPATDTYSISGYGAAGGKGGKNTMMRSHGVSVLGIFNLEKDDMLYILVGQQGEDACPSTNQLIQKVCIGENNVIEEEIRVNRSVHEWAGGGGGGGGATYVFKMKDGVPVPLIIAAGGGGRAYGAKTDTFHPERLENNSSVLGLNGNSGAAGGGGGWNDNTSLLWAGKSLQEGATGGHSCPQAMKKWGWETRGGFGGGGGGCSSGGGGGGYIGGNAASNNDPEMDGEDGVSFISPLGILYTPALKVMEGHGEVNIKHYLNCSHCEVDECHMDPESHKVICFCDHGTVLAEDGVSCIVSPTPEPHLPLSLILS

Binder	Affinity
TRL10005 (antibody, IgG1, V domains shown, Native human mAb from donor 236) VH: QVQLVESGGGLVKPGGSLRLSCAASGFTFNDHYMTWIRQAPGKGLEWISYISSSGGTIFYAESVKGRFTISRDNANNILFLQMNSLRAEDTAVYYCARGALRFLEWSHLGSWGQGTLVTVSS VL: DIVLTQSPGTLSLSPGERATLSCRASQRVSSSYLAWFQQKPGQAPRLLIYGASTRATGIPDRFSGSGSGTDFTLTISRLEPEDFAVYYCQQYGMSSWTFGQGTKVEIKR	1 nM
TRL10014 (antibody, IgG1, V domains shown, Native human mAb from donor 210; also called TRL100014) VH: QVQLVESGGGLVKPGGSLRLSCTASGFSFSDSYMNWIRQAPGKGLEWLAYISTSATYTYSADSVKGRFTISRDNAKNSLYLQMNSLRDEDTAVYYCAREGLFYDGLYGMDVWGQGTTVIVSS VL: DILMTQSPLSLPVTPGEPASISCRSSQSLLHSNGYNYLNWYLQKPGQSPQLLIYLGSNRASGVPDRFSGSGSGTDFTLKISSVEAEDVGVYYCMQALHTPRTFGQGTKVEIKR	75 nM
TRL10051 (antibody, IgG1, V domains shown, Native human mAb from donor 223) VH: QVQLVESGGGLVQPGGSLRLSCAASGFTFSSYVMSWVRQAPGKGLEWVSSIRVSGDRAHYADSVKGRFTVSRDDSKNTVYLQMNSLRVEDTAVYYCVKDQAERLLRAVTTHFDYWGQGALVTVSS VL: DIVMTQSPLSSPVTLGQPASISCRSSQSLVHSDGNTYLSWLQQRPGQPPRLLIYKVSRRFSGVPDRFSGSGAGTDFTLKISRVEAEDVGIYYCMQASQFPRTFGQGTKVEIKR	1 nM
